Consider seven molecules from patent US20240181075A1 (published 2024).

Assay [1] concerns the target Mouse N4. In words: flow cytometry, transfected CHO cells.
Another assay concerns the target Monkey N4. In words: flow cytometry, transfected CHO cells. For orientation: Flow cytometry measures light scatter and fluorescence of single cells or particles in a stream.
In assay [2] the target is Rat N4. In words: flow cytometry, transfected CHO cells.
The target in assay [3] is T1, human Nectin-4 on cells (CHO cells transfected with human Nectin-4 cDNA); SUM190 tumor cells; normal … (human, UniProt Q96NY8 32-510).
T1 chain: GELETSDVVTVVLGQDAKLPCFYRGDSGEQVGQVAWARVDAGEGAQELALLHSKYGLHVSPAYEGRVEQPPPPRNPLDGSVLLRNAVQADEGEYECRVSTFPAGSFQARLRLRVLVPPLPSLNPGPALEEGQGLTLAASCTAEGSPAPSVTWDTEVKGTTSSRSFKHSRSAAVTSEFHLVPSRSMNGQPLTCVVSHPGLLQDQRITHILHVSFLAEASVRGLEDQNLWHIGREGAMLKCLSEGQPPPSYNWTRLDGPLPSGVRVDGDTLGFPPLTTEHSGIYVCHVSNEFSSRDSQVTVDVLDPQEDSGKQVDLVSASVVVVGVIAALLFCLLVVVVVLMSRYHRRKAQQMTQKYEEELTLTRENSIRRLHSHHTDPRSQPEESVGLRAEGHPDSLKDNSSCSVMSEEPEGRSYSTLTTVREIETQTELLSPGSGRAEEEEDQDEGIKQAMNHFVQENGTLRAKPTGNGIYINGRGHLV
In words: flow.

Assay [4] has as its target Mouse N4. Put plainly: flow cytometry, transfected CHO cells; ambiguous fit.
Assay [5] has as its target Rat N4. Described as above.
Assay [6] has as its target T1, human Nectin-4 on cells (CHO cells …). Put plainly: flow cytometry, transfected CHO cells.

B1: HA22 (antibody, V domains shown)
VH: EVQLVESGGGLVQPGGSLRLSCAASGFTFSSYNMNWVRQAPGKGLEWVSYISSSSSTIYYADSVKGRFTISRDNAKNSLSLQMNSLRDEDTAVYYCARAYYYGMDVWGQGTTVTVSS
VL: DIQMTQSPSSVSASVGDRVTITCRASQGISGWLAWYQQKPGKAPKFLIYAASTLQSGVPSRFSGSGSGTDFTLTISSLQPEDFATYYCQQANSFPPTFGGGTKVEIK
Turning to B1, the EC50 (in general, the concentration giving half of the maximal effect) with Mouse N4 [1] was 41100 pM; in the assay with Monkey N4, 67.8 pM; with Rat N4 [2] it was 97 pM.

B2: HA22 (Enfortumab), human monoclonal anti-Nectin-4 antibody (antibody, V domains shown)
VH: EVQLVESGGGLVQPGGSLRLSCAASGFTFSSYNMNWVRQAPGKGLEWVSYISSSSSTIYYADSVKGRFTISRDNAKNSLSLQMNSLRDEDTAVYYCARAYYYGMDVWGQGTTVTVSS
VL: DIQMTQSPSSVSASVGDRVTITCRASQGISGWLAWYQQKPGKAPKFLIYAASTLQSGVPSRFSGSGSGTDFTLTISSLQPEDFATYYCQQANSFPPTFGGGTKVEIK
In assay [3], B2 returned a concentration giving a half-maximal response (EC50) of 346 pM.

B3: Ch-15A7.5 (antibody, V domains shown)
VH: EVKLVESGGGLVQPGGSRKLSCAASGFTFSNYGMAWVRQAPGKGPEWVAFISNLAYGINYADTVTGRFTISRENAKNTLYLEMRSLRSEDTAMYYCARGARATGWFAYWGQGTLVTVSA
VL: DIVMTQSQKFMSTSIGDRVSVTCKASQNVDTHVAWYQEKPGQSPKALIYSASYRYSGVPDRFTGSGSGTDFTLTISNVQSEDLADYFCQQYNSYPLTFGGGTKLEIK
Turning to B3, the EC50 is 1220 pM with Monkey N4, roughly 31200 pM with Mouse N4 [4] and roughly 5160 pM with Rat N4 [5].

B4: Ch-15A7.5 (chimeric anti-Nectin-4 monoclonal antibody 15A7.5) (antibody, V domains shown)
VH: EVKLVESGGGLVQPGGSRKLSCAASGFTFSNYGMAWVRQAPGKGPEWVAFISNLAYGINYADTVTGRFTISRENAKNTLYLEMRSLRSEDTAMYYCARGARATGWFAYWGQGTLVTVSA
VL: DIVMTQSQKFMSTSIGDRVSVTCKASQNVDTHVAWYQEKPGQSPKALIYSASYRYSGVPDRFTGSGSGTDFTLTISNVQSEDLADYFCQQYNSYPLTFGGGTKLEIK
In assay [6], B4 had a half-maximal effective concentration (EC50) of 692 pM.

B5: Ch-3A1.4 (antibody, V domains shown)
VH: DVQLQESGPSLVKPSQTLSLTCSVTGDSITSGYWNWIRKFPGNKLEYMGYISNSGITYYNPSLKSRISITRDTSKNQYFLQLNSVTAEDTATYYCTRFGSTMILYYTMDYWGQGTSVTVSS
VL: DIVMTQSPVTLSVTPGDRVSLSCRASQSISDYLHWYQQKSQESPRLLIKYASKSISGIPSRFSGSGSGSNFTLSINSVEPEDVGVYYCQNGHSFPLTFGAGTKLELK
For the molecule B5, a half-maximal effect in assay [6] (EC50) was put at 2840 pM.

B6: Ch-5A12.2 (antibody, V domains shown)
VH: QIQLQQSGAELVKPGASVTLSCKTSGFTFNSMYISWLKQKPGQSLEWIAWIYAGTGGTRFNQKFTGKVQLTVDTSSSTAYMQFSSLTTDDSAIYYCAIRSGFVPMDYWGQGTSVTVSS
VL: SIVMTQTPKFLLVSAGDRVTITCKASQSVSNDVAWYQQKPGQSPKLLIYYASNRYTGVPDRFTGSGYGTDFTFTISTVQAEDLAVYFCQQDYSSPWTFGGGTKLEIK
As to B6, the EC50 in the assay with Monkey N4 was 134 pM; in the assay with Rat N4 [2] it was 478 pM; in the assay with Mouse N4 [4], roughly 205000 pM.

B7: Ch-5A12.2 (chimeric anti-Nectin-4 monoclonal antibody 5A12.2) (antibody, V domains shown)
VH: QIQLQQSGAELVKPGASVTLSCKTSGFTFNSMYISWLKQKPGQSLEWIAWIYAGTGGTRFNQKFTGKVQLTVDTSSSTAYMQFSSLTTDDSAIYYCAIRSGFVPMDYWGQGTSVTVSS
VL: SIVMTQTPKFLLVSAGDRVTITCKASQSVSNDVAWYQQKPGQSPKLLIYYASNRYTGVPDRFTGSGYGTDFTFTISTVQAEDLAVYFCQQDYSSPWTFGGGTKLEIK
Consider B7, for which it took 370 pM to reach a half-maximal effect in assay [6] (EC50).
